In PMC2173631 (The Journal of Cell Biology, 2003):

T1: DAGLβ (Mus musculus, UniProt Q91WC9)
T1 sequence (Q91WC9 1-669): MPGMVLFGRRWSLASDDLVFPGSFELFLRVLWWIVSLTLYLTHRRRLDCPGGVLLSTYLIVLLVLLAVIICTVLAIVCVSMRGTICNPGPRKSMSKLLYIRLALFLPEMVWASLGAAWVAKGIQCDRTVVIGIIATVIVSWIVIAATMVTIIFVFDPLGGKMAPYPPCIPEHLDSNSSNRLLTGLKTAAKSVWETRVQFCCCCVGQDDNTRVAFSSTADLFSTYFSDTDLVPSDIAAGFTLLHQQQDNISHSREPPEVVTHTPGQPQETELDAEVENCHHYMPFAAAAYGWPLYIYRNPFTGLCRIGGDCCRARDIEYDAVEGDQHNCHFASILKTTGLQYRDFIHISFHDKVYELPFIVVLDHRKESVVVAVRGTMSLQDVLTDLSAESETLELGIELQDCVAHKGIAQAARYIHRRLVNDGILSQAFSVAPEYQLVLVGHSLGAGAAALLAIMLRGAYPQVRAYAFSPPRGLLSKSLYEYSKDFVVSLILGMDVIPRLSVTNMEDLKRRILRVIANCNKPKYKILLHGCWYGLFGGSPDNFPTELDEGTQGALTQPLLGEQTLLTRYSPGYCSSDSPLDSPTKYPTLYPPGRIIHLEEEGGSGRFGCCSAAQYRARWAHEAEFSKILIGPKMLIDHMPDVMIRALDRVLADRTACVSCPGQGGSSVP

B1: DAGLα (Homo sapiens) (protein)
chain: MPGIVVFRRRWSVGSDDLVLPAIFLFLLHTTWFVILSVVLFGLVYNPHEACSLNLVDHGRGYLGILLSCMIAEMAIIWLSMRGGILYTEPRDSMQYVLYVRLAILVIEFIYAIVGIVWLTQYYTSCNDLTAKNVTLGMVVCNWVVILSVCITVLCVFDPTGRTFVKLRATKRRQRNLRTYNLRHRLEEGQATSWSRRLKVFLCCTRTKDSQSDAYSEIAYLFAEFFRDLDIVPSDIIAGLVLLRQRQRAKRNAVLDEANNDILAFLSGMPVTRNTKYLDLKNSQEMLRYKEVCYYMLFALAAYGWPMYLMRKPACGLCQLARSCSCCLCPARPRFAPGVTIEEDNCCGCNAIAIRRHFLDENMTAVDIVYTSCHDAVYETPFYVAVDHDKKKVVISIRGTLSPKDALTDLTGDAERLPVEGHHGTWLGHKGMVLSAEYIKKKLEQEMVLSQAFGRDLGRGTKHYGLIVVGHSLGAGTAAILSFLLRPQYPTLKCFAYSPPGGLLSEDAMEYSKEFVTAVVLGKDLVPRIGLSQLEGFRRQLLDVLQRSTKPKWRIIVGATKCIPKSELPEEVEVTTLASTRLWTHPSDLTIALSASTPLYPPGRIIHVVHNHPAEQCCCCEQEEPTYFAIWGDNKAFNEVIISPAMLHEHLPYVVMEGLNKVLENYNKGKTALLSAAKVMVSPTEVDLTPELIFQQQPLPTGPPMPTGLALELPTADHRNSSVRSKSQSEMSLEGFSEGRLLSPVVAAAARQDPVELLLLSTQERLAAELQARRAPLATMESLSDTESLYSFDSRRSSGFRSIRGSPSLHAVLERDEGHLFYIDPAIPEENPSLSSRTELLAADSLSKHSQDTQPLEAALGSGGVTPERPPSAAANDEEEEVGGGGGGPASRGELALHNGRLGDSPSPQVLEFAEFIDSLFNLDSKSSSFQDLYCMVVPESPTSDYAEGPKSPSQQEILLRAQFEPNLVPKPPRLFAGSADPSSGISLSPSFPLSSSGELMDLTPTGLSSQECLAADKIRTSTPTGHGASPAKQDELVISAR
B2: DAGLβ (Mus musculus) (protein)
chain: T1 sequence (Q91WC9 1-669)

Legend:
DAGLβ = target: T1, DAGLβ; test: radiolabeled DAG hydrolysis assay, homogenates of transfected COS cells; assay type: biochemical
[1] = substrate: CCCCC/C=C\C/C=C\C/C=C\C/C=C\CCCC(=O)O[C@@H](CO)COC(=O)CCCCCCCCCCCCCCCCC; test: cells, lysate or membranes

| Molecule | IC50 (DAGLβ) [nM] | Km [1] [µM] |
| --- | --- | --- |
| CCCCCCCCCCC[C@@H](C[C@@H]1OC(=O)[C@H]1CCCCCC)OC(=O)[C@H](CC(C)C)NC=O [THL, tetrahydrolipstatin] | 100 |  |
| B1 |  | 154.7 ± 19.1 |
| B2 |  | 74.1 ± 4.9 |
